According to patent US20250282885A1 (VST BIO, published 2025):

B1: R4M-P1-A10 (antibody, human IgG1, kappa, V domains shown)
VH: EVQLVETGGGVVQPGRSLRLSCAASGFTFSSYAMHWVRQAPGKGLEWVAVISYDGSNKYYADSVKGRFTISRDNSKNTLYLQMNSLRAEDTAVYYCARDRGWADAFDIWGQGTMVTVSS
VL: QAGLTQPPSVSKGLRQTATLTCTGNSNNVGYQGAVWLLQYQGHPPKVLSNRNNDRPSGISERLSASRSGNTASLTITGLQPEDEGDYFCAAWDGSLRGWVFGGGTKLTVLR
B2: R3-P3-A12 (antibody, human IgG1, kappa, V domains shown)
VH: EVQLVESGGGLVQPGRSLRLSCGVSGFTFSSFGMHWVRQAPGKGLEWVAVISNDALHKNYGDSVKGRFTVTRDNSRNTLFLQMTSLRPEDTAVYYCAKDVVRGHTSGSLGSWGQGTLVTVSS
VL: not shown
notes: human IgG1 kappa from the phage campaign

How the values were obtained:
[1] = molecular target: human Sdc2 on Human Umbilical Vein Endothelial Cells (HUVEC) (human, UniProt P34741 19-201); assay: cell-based or functional assay
human Sdc2 [2] = molecular target: T1, human Sdc2 (human, UniProt P34741 19-144, limits assumed); assay: Kd (human Sdc2), summary table of the mAbs
T1 construct: Antigen of the Octet tandem binning, loaded on biosensors at 100 nM; also called huSdc2; hSdc2

human Sdc2 [3] = molecular target: T1, human Sdc2; assay: Octet BLI, heading box over the sensorgram
mouse Sdc2 = molecular target: T2, mouse Sdc2 (mouse, UniProt P43407 19-145, limits assumed); assay: Octet BLI, heading box over the sensorgram
T2 construct: Immobilised on Maxisorp plates for panning and ELISA; also called mSdc2; moSdc2

human Sdc2 [4] = molecular target: T1, human Sdc2; assay: Octet tandem binning; saturating Ab f3 19838-6N03-A
human Sdc2 [5] = molecular target: T1, human Sdc2; assay: Octet tandem binning; saturating Ab m2 19838-8G17-A
human Sdc2 [6] = molecular target: T1, human Sdc2; assay: Octet tandem binning; saturating Ab f9 19838-6-E17-A
human Sdc2 [7] = molecular target: T1, human Sdc2; assay: Octet tandem binning; saturating Ab f12 19838-6-N03-A
human Sdc2 [8] = molecular target: T1, human Sdc2; assay: Octet tandem binning; saturating Ab m1 19838-20H19-AB
human Sdc2 [9] = molecular target: T1, human Sdc2; assay: Octet tandem binning; saturating Ab f10 19838-10-I12-A
human Sdc2 [10] = molecular target: T1, human Sdc2; assay: Octet tandem binning; saturating Ab f11 19838-20-H19-A
human Sdc2 [11] = molecular target: T1, human Sdc2; assay: Octet tandem binning; saturating Ab f4 19844-R3-P3-C11
Summary of the method: (§1)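 Octet sensors bearing 100 nM human Sdc2 got a 240 s saturating-antibody dip at 25 μg/ml and then a 180 s competitor dip at 5 μg/ml. Signal ratios are relative to buffer in place of the saturating step.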

human Sdc2 [12] = molecular target: T1, human Sdc2; assay: Octet tandem binning; saturating Ab f6 19844-R3-P3-E09
Summary of the method: as §1

human Sdc2 [13] = molecular target: T1, human Sdc2; assay: Octet tandem binning; saturating Ab f7 19844-R3-P3-A12
human Sdc2 [14] = molecular target: T1, human Sdc2; assay: Octet tandem binning; saturating Ab m7 19844-R3-P1-E07
human Sdc2 [15] = molecular target: T1, human Sdc2; assay: Octet tandem binning; saturating Ab f5 19844-R4M-P3-E06
human Sdc2 [16] = molecular target: T1, human Sdc2; assay: Octet tandem binning; saturating Ab f8 19844-R4M-P2-C02
human Sdc2 [17] = molecular target: T1, human Sdc2; assay: Octet tandem binning; Buffer in place of a saturating Ab
human Sdc2 [18] = molecular target: T1, human Sdc2; assay: Octet BLI, HIS1K sensor loaded with huSdc2, antibody as sample; Full R2 0.9628
Method: (§2) In order to characterize the binding affinity and in vivo/in vitro functional ability of the twelve clones generated by the previous studies and disclosed in Table 1, a series of assays were performed on each clone. These assays measured the affinity of each antibody clone for human, pig, and mouse Sdc2 using an Octet® binding assay system. Additionally, the functional ability of each clone to inhibit VEGFA-driven permeability (see Santiago, et al. (2021) J Am Heart Assoc. 10(18):e020521) was assessed in two therapeutic settings: a “prevention” study in which three concentrations of antibody (5 μg/ml, 10 μg/ml, 15 μg/ml, 20 μg/ml, and/or 40 μg/ml depending on the study) were pre-incubated for an hour before administration of 100 ng/ml of VEGFA, and a “treatment” study in which 3 hours of pre-treatment with 100 ng/ml VEGFA were followed by treatment with antibody at 20 μg/ml or 40 μg/ml. Results are shown for 8-G17 in FIG. 8 and FIG. 9, 20-H19-AB in FIG. 10 and FIG. 11 (FIG. 12 for monkey ECs), R3-P3-C11 in FIG. 13 and FIG. 14, R4M-P3-E06 in FIG. 15 and FIG. 16, R3-P3-E09 in FIG. 17 and FIG. 18, R3-P1-C02 in FIG. 19 and FIG. 20, R3-P3-A12 in FIG. 21 and FIG. 22, R4M-P3-A12 in FIG. 23 and FIG. 24, and R4M-P1-A10 in FIG. 25 and FIG. 26.

pig Sdc2 [19] = molecular target: T3, pig Sdc2 (pig, UniProt F1S0L5 19-145); assay: Octet BLI, HIS1K sensor loaded with pigSdc2, antibody as sample; Full R2 0.9632
T3 construct: also called pSdc2
Method: as §2

human Sdc2 [20] = molecular target: T1, human Sdc2; assay: Octet tandem binning; saturating Ab m6 19838-20H19-AA (marked non-binding ligand)
human Sdc2 [21] = molecular target: T1, human Sdc2; assay: Octet tandem binning; saturating Ab m3 19844-R3-P1-C02 (row boxed, self-self >0.09)
human Sdc2 [22] = molecular target: T1, human Sdc2; assay: Octet tandem binning; saturating Ab m8 19844-R4M-P1-B01 (marked non-binding ligand)
human Sdc2 [23] = molecular target: T1, human Sdc2; assay: Octet tandem binning; saturating Ab m5 19844-R4M-P3-A12 (row boxed, self-self >0.09)
Summary of the method: as §1

pig Sdc2 [24] = molecular target: T3, pig Sdc2; assay: Octet BLI, heading box over the sensorgram; the box prints nm, the table gives 2.71E-09 M
human Sdc2 [25] = molecular target: T1, human Sdc2; assay: Octet BLI, heading box over the sensorgram; remark: listed apart in the source
human Sdc2 [26] = molecular target: T1, human Sdc2; assay: Octet tandem binning; saturating Ab m4 19844-R4M-P1-A10
human Sdc2 [27] = molecular target: T1, human Sdc2; assay: Octet BLI, HIS1K sensor loaded with huSdc2, antibody as sample; Full R2 0.9943

T1 sequence (P34741 19-144 limits assumed): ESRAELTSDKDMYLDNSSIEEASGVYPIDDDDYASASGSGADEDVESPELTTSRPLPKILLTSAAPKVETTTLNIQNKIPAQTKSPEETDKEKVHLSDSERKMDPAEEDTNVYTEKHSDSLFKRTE
Chain of human Sdc2 on Human Umbilical Vein Endothelial Cells (HUVEC) (P34741 19-201 limits assumed): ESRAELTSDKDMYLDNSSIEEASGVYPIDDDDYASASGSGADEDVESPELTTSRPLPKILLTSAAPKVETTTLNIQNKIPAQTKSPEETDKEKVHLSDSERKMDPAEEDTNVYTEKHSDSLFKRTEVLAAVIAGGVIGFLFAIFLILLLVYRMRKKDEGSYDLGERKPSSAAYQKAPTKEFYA
T2 sequence (P43407 19-145 limits assumed): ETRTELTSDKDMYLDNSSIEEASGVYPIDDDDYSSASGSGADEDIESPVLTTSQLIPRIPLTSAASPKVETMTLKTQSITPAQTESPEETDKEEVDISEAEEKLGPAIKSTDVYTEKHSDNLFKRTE

Binder	% Inhibition of VEGFA-induced permeability at 24hrs (20ug/ml) [1] [%]	Kd (human Sdc2 [2]) [nM]	raw competing-Ab binding signal (human Sdc2 [4])	raw competing-Ab binding signal (human Sdc2 [5])	raw competing-Ab binding signal (human Sdc2 [6])	raw competing-Ab binding signal (human Sdc2 [7])	raw competing-Ab binding signal (human Sdc2 [8])	raw competing-Ab binding signal (human Sdc2 [9])	raw competing-Ab binding signal (human Sdc2 [10])	raw competing-Ab binding signal (human Sdc2 [11])	raw competing-Ab binding signal (human Sdc2 [12])	raw competing-Ab binding signal (human Sdc2 [14])	raw competing-Ab binding signal (human Sdc2 [15])	raw competing-Ab binding signal (human Sdc2 [16])	raw competing-Ab binding signal (human Sdc2 [17])	raw competing-Ab binding signal (human Sdc2 [20])	raw competing-Ab binding signal (human Sdc2 [21])	raw competing-Ab binding signal (human Sdc2 [22])	raw competing-Ab binding signal (human Sdc2 [23])	also measured
B1	100	1.82	0.362	0.377	0.34	0.406	0.439	0.418	0.444	0.193	0.203	0.353	0.358	0.211	0.337	0.32	0.255	0.355	0.302	Kd (human Sdc2 [3]): ~1.82 nM; Kd (mouse Sdc2): ~1.85 nM; raw competing-Ab binding signal (human Sdc2 [13]): 0.246; Kd (human Sdc2 [18]): 1.82 nM; koff (human Sdc2 [18]): 0.00663 s⁻¹; kon (human Sdc2 [18]): 3.65e+06 M⁻¹ s⁻¹; Kd (pig Sdc2 [19]): 2.71 nM; koff (pig Sdc2 [19]): 0.00459 s⁻¹; kon (pig Sdc2 [19]): 1.69e+06 M⁻¹ s⁻¹; Kd (pig Sdc2 [24]): ~2.71 nM
B2	90	2.8	0.704	0.548	0.594	0.794	0.459	0.3	0.529	0.0654	0.322	0.618	0.618	0.562	0.599	0.636	0.562	0.619	0.61	Kd (human Sdc2 [25]): ~2.8 nM; raw competing-Ab binding signal (human Sdc2 [26]): 0.539; Kd (human Sdc2 [27]): 2.8 nM; koff (human Sdc2 [27]): 0.00131 s⁻¹; kon (human Sdc2 [27]): 469000 M⁻¹ s⁻¹
